Results reported in article PMC6775958 (Pharmacology Research & Perspectives, 2019).
Where “and” joins values, the source holds several entries; their conditions need not be identical. Equal entries are not always repeated. Where two headings read alike, the source gives them in different places.

Tests used:
[1] = conscious dogs, cited from earlier work; for Bioavailability: pilot experiments
[2] = Euglycemic glucose clamp; format: in vivo, swine; conditions: 20 IU RHI
[3] = Pharmacokinetics of RHI in anesthetized swine; format: in vivo; conditions: 20 IU RHI, mean ± SEM; for Cmax (peak serum concentration), Non-transformed / Tmax (time to peak serum concentration): non-compartmental
[4] = Subcutaneous, natural logarithmic scale, n = 9

Substance	Cmax after oral than after subcutaneous administration ([1]; oral ODP vs subcutaneous)	Tmax after oral than after subcutaneous administration ([1]; oral ODP vs subcutaneous)	Bioavailability ([1]; oral delivery by the ODP) [%]	Bioavailability ([1]; subcutaneous injections) [%]	Biological activity of RHI delivered by the ODP (increased demand for glucose delivery to maintain the euglycemic clamp) ([2]; ODP (jejunal wall), anesthetized swine)	Mean AUClast of glucose infusion rates ([2]; Subcutaneous, euglycemic clamp, swine, 0-420 min, mean ± SEM, n = 9) [g/min^2]	Cmax (peak serum concentration), Non-transformed ([3]; Intrajejunal wall (ODP), n = 8) [nM]	Tmax (time to peak serum concentration) ([3]; Intrajejunal wall (ODP), n = 8)	Area under the insulin concentration curve ([3]; ODP (jejunal wall), n = 8 (abstract)) [nmol/L/min]	Area under the insulin concentration curve ([3]; Subcutaneous, n = 9 (abstract)) [nmol/L/min]	AUClast, Log-transformed [3, 4] [pmol/L·min]	Cmax, Log-transformed [3, 4] [pmol/L]	Cmax (peak serum concentration), Non-transformed ([3]; Subcutaneous, n = 9) [nM]	Tmax (time to peak serum concentration) ([3]; Subcutaneous, n = 9)
human immunoglobulin G [human IgG]	higher	shorter	60	50										
recombinant human insulin [RHI]					confirmed	106 ± 10	0.517 ± 0.109	2.32 ± 0.65 h and 2.32 ± 0.7 h	83 ± 18	81 ± 10	2178 ± 49	5.74 ± 0.17	0.342 ± 0.05	4 ± 0.517 h and 3.78 ± 0.4 h
